Measured values published in the supplement of paper PMC12764529.
± gives the half width of the 95% confidence interval.

Assay: folding stability dG unfold from trypsin proteolysis; higher = more stable
Method in brief: (§1)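 Only designs with AlphaFold2 dimer inter-PAE above 15 were retained; each was a mini-protein under 80 residues with no cysteine, in a PA-tagged cDNA display construct. After digestion with trypsin and chymotrypsin and sequencing, K50 was inferred by Bayesian fitting of counts, and unfolding free energy was derived per protease or combined against a sequence-predicted unfolded-state K50 and a shared folded-state K50.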

Row | Sequence | folding stability dG unfold [kcal/mol]
1 | SAGGSAGGSARITVTPEGGYWRVTIKGPGKTRTFQFPMPANEAEEIVEELQNPPIDIDVEPVSAGGSAGGSA [r18_103_TrROS] | -0.328 ± 0.3
2 | SMKKVLIVTPNPEINPEEVVKALKEKGFKEIKVFSTPEELKEALPEYDIVIIEENGKLYIKYIPPGKLAKSA [r9_750_TrMRF] | 0.334 ± 0.17
3 | SAGGSAGGGMNATPKKIKVTITITDPSGNKTTVTREFDSEEEAEKFVKELLPPNRSYTVTYEPESAGGSAGG [r6_290_JUSTAS] | 2.94 ± 0.074
4 | SAGGMKVIEVEMTADEVKALVKELAEKDDLKIYIYVDGKKIELTVDEIKKIPPENQKVTIIIEKKKESAGGS [r16_628_TrROS_Hall] | 2.95 ± 0.22
5 | SAGGSAEPRPVVVVFEGTEEEVEELVQKVRDEGFAIDFKVEPLPDPRYYRATVIVRDPDGSWTAKLSAGGSA [r15_177_TrMRF] | 2.07 ± 0.046
6 | SAGGSAGGSANIDIKVEENPGNGYRKVEVTMTVDDLRELFGNEPIPPGEERQIKMTIYLPIPSAGGSAGGSA [r18_327_TrROS] | 0.772 ± 0.13
7 | SAGGSAGGPEVKILKVDPENNTITLALPVDNEILLLEIKIEPDPENPNSFKATIELKVFPYNEASAGGSAGG [r6_371_TrMRF] | 2.33 ± 0.28
8 | SPSTTIPQTITLDTKLPNGKPATPEEVKAIAEEIVKKLEKEKGVKISINVKVTPVDSSGKYKLDITITIIKS [r1_231_JUSTAS] | 2.14 ± 0.047
9 | SAGGMKIVSIEYDKENKKITIKVEAPPGVSAEELAKKIKELAKELFGKEIEIEVKVEKVEFFEPEEESAGGS [r8_314_TrROS_Hall] | 3.61 ± 0.16
10 | SAGGSAGGSAAKPIPFTITSVSVPTAPDGKKYAVVEISFPGSGAKAWAVYDIDDPYIKEAGSAGGSAGGSAG [r3_57_TrMRF] | 0.804 ± 0.095
11 | SAGGKLLEELNVEKVEVVEVKEFSLPPLPLLVLLPTVTVTFKDGSKVKFKVLFLYDPSNPKPIVVAGSAGGS [r8_422_TrMRF] | 2.42 ± 0.1
12 | SAGDVKVITIKNPDGWQASIALNEDGTVYLMFNSPDQFLDLIEDLGFPITSVEMHPNGMMIFTIELPPSAGG [r19_257_TrROS] | 2.27 ± 0.061
13 | SAGMELELELEFRLEDGLEVRIRVKVRFDPETGELVIEEVRIEVRPLPPPPPLVLTDEELEALGLEPEESAG [r5_393_TrROS_Hall] | 3.6 ± 0.23
14 | SAGGSAGGWQPIAEHEFENPEDGKKIKIYYWPENGMMRIEFPNGRKHVIPPGDPFKSIEEMIKASAGGSAGG [r6_72_TrROS] | 1.15 ± 0.071
15 | SAGGSAGGKKIEMKIIKNEDGTKLIVFKSKEEAEEALKKAGYEVKIVSVNEEKGYVVIEIRKKKSAGGSAGG [r6_510_TrROS_Hall] | 1.17 ± 0.043
16 | SAGGSAGGSAGMKELEITIIDKKTGKPLKVKVTLVEVDGKLYLVIEVYKNGKPLETYVLPSAGGSAGGSAGG [r11_631_TrROS_Hall] | 2.29 ± 0.12
17 | SAGGSAPARIVLPGGRTRTLRLSEISPELLAAFPDVLVRLPGGEVRRLPADTLLSLEGDYTLVVPGSAGGSA [r15_733_TrMRF] | -0.262 ± 0.18
18 | SAGGKEKKPKVELKITSISEFEGGLVIEGEATTPTKKIKVLAVYDPSTGKITVWRETPEGIEPLAEFGSAGG [r13_445_TrMRF] | 1.76 ± 0.059
19 | SAGGMEKIEIEVENEDGEKVKIEIYFDEETGFIVVKIEGENPELIDALKKKLGLEIVEKREDGYLVFKSAGG [r13_937_TrROS_Hall] | 3.01 ± 0.24
20 | SGLPEELARKLGLSAMTPLPDGTLVMALPDGTRVVVRIETTEVRLSPLGEPAVEVEVEVERLPAPAPEAASA [r9_648_JUSTAS] | 1.5 ± 0.027
21 | SAGGSAVRIKVWPPNGKEQWIPIPSSMTPSTVQEMAENLADDWQEQNGNKNVKVEVDPDNGWIRIRSAGGSA [r15_33_TrROS] | -1.02 ± 0.3

Assay: folding stability dG unfold (combined trypsin and chymotrypsin); higher = more stable
Method in brief: as §1

Row | Sequence | folding stability dG unfold [kcal/mol]
22 | SSSGTDPLTVRVTVTLTDPSTGKETLLEYEVEVPPGTPVEVELPDVPPSASVTVEVYDPGGVRIGTRTLPSA [r9_478_JUSTAS] | 1.95 ± 0.4
23 | SAGGAPVPVSVTVEIFKRPDGYIIKVNIPSGETKTFSSLEELEKFLKENPSLKITKRTTVPIEKYYESSAGG [r13_730_JUSTAS] | 2.67 ± 0.071
24 | SAKKVIIEVKSLEELLKAAKEAAKKGEKVEVLVKLKDGYYVKITMEFDKKTKKIKIKKIEIKPIKKEDLSAG [r14_455_TrROS_Hall] | 2.46 ± 0.38
25 | SAGGSAKGKKTRTITIMAPFDNKEEAREQAEEIADNIMNNLPDDMKIKVEVSWNPEDNYVMATIRISAGGSA [r15_981_TrROS] | 0.707 ± 0.25
26 | SAGGSAGGSAGGPYWRVKIEWMDPNGKKKEHTFTFPPGWPLEEIAEELKPNGYKIEVEPLSAGGSAGGSAGG [r7_226_TrROS] | 1.46 ± 0.085
27 | SAGGSDKEEKEKEIDIRIVQVPWDDARELAEESDDPVIFMLPDGHIHIFKGDGKVEPFPIPDPEEFSAGGSA [r2_34_TrROS] | 0.0224 ± 0.12
28 | SAGAMPPVVEVAPVEGEGLLRVTVPVPTSDVVRVTVDLGDRRLEYTLPRDASLEVSTADAEVRVAVELVSAG [r14_96_JUSTAS] | 0.638 ± 0.056
29 | SAGGSAGGSAKLVKITFSNGEELVLPADKFSIEAIKSLPVPAKVEVFDVPKSDTNLEDLLKSAGGSAGGSAG [r3_69_TrMRF] | 1.66 ± 0.044
30 | SAGGEVKIEVVEKDGELYIVVTVRAPSVEELKKALEELGLEVEVVKIEEVKGEDGETYVVVVVKIKPSAGGS [r16_699_TrROS_Hall] | 3.24 ± 0.07
31 | SAGGEVKVEIKYDKKKNKIEIKVIVRDKETGEWKELSAEEIAKLLKKKLKLPNVKEIKVEVYEPGEKPSAGG [r13_327_TrROS_Hall] | 1.97 ± 0.18
